Source: patent publication US20200362018

T1: T. acidophilum (Archaea) 20S proteasome, P25156
T1 chain 1: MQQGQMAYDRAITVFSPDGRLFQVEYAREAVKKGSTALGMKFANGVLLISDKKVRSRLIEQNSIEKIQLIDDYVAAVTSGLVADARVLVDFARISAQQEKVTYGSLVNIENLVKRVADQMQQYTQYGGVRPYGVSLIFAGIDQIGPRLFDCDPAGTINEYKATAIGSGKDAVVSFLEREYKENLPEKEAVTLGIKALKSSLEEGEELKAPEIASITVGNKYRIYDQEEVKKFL
T1 chain 2: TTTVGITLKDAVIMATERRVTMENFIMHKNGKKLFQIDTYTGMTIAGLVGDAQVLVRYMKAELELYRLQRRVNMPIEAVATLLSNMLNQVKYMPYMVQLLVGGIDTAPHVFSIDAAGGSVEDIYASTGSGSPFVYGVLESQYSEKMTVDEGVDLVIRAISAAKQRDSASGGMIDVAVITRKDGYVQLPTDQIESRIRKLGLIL

T2: S. cerevisiae (Yeast) 20S proteasome, FLAG-tagged (Pre1), P22141
T2 sequence (P22141 1-198, looked up): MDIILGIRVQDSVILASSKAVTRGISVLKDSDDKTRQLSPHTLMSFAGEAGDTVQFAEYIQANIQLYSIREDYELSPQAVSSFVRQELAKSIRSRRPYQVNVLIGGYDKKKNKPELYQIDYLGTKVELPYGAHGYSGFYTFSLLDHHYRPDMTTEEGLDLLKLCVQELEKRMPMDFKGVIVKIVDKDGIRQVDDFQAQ

B1: human RBBP9 with a C-terminal 6His tag (protein)
chain: MASPSKAVIVPGNGGGDVTTHGWYGWVKKELEKIPGFQCLAKNMPDPITARESIWLPFMETELHCDEKTIIIGHSSGAIAAMRYAETHRVYAIVLVSAYTSDLGDENERASGYFTRPWQWEKIKANCPYIVQFGSTDDPFLPWKEQQEVADRLETKLHKFTDCGHFQNTEFHELITVVKSLLKVPA
B2: human NQO2 (recombinant, His-TEV fragment removed) (protein)
chain: MAGKKVLIVYAHQEPKSFNGSLKNVAVDELSRQGCTVTVSDLYAMNLEPRATDKDITGTLSNPEVFNYGVETHEAYKQRSLASDITDEQKKVREADLVIFQFPLYWFSVPAILKGWMDRVLCQGFAFDIPGFYDSGLLQGKLALLSVTTGGTAEMYTKTGVNGDSRYFLWPLQHGTLHFCGFKVLAPQISFAPEIASEEERKGMVAAWSQRLQTIWKEEPIPCTAHWHFGQ
B3: human PGDH with a C-terminal 6His tag (protein)
chain: MHVNGKVALVTGAAQGIGRAFAEALLLKGAKVALVDWNLEAGVQCKAALDEQFEPQKTLFIQCDVADQQQLRDTFRKVVDHFGRLDILVNNAGVNNEKNWEKTLQINLVSVISGTYLGLDYMSKQNGGEGGIIINMSSLAGLMPVAQQPVYCASKHGIVGFTRSAALAANLMNSGVRLNAICPGFVNTAILESIEKEENMGQYIEYKDHIKDMIKYYGILDPPLIANGLITLIEDDALNGAIMKITTSKGIHFQDYDTTPFQAKTQ
B4: human CBR3 (recombinant, His tag removed) (protein)
chain: MSSCSRVALVTGANRGIGLAIARELCRQFSGDVVLTARDVARGQAAVQQLQAEGLSPRFHQLDIDDLQSIRALRDFLRKEYGGLNVLVNNAAVAFKSDDPMPFDIKAEMTLKTNFFATRNMCNELLPIMKPHGRVVNISSLQCLRAFENCSEDLQERFHSETLTEGDLVDLMKKFVEDTKNEVHEREGWPNSPYGVSKLGVTVLSRILARRLDEKRKADRILVNACCPGPVKTDMDGKDSIRTVEEGAETPVYLALLPPDATEPQGQLVHDKVVQNW

Experiments:
[1] = biological target: R. norvegicus (Mammalian) 20S proteasome purified from rat liver
[2] = biological target: 20S proteasome (source not stated for the experiment)
[3] = biological target: T1, T. acidophilum (Archaea) 20S …
[4] = biological target: T2, S. cerevisiae (Yeast) 20S proteasome, …

Row | Protein | in vitro degradation of oxidized calmodulin by purified mammalian 20S proteasomes [1] | time-dependent degradation of α-synuclein by the 20S proteasome, SDS-PAGE with image analysis [2] | in vitro degradation of α-synuclein by purified mammalian 20S proteasomes [1] | degradation of α-synuclein by the 20S proteasome, SDS-PAGE time course [3] | degradation of α-synuclein by the 20S proteasome, SDS-PAGE time course [4]
1 | B1 | OxCam degradation was inhibited by all the candidates |  |  |  | 
2 | B2 | OxCam degradation was inhibited by all the candidates | In the presence of NQO2, CBR3, PGDH, NRas, KRas and RhoA, however, there was a marked decrease in the degradation rate. | the majority of the CCRs successfully inhibited the degradation of α-synuclein, with the exception of RBBP9 and HRas |  | 
3 | B3 | OxCam degradation was inhibited by all the candidates |  | the majority of the CCRs successfully inhibited the degradation of α-synuclein, with the exception of RBBP9 and HRas |  | 
4 | B4 | OxCam degradation was inhibited by all the candidates |  | the majority of the CCRs successfully inhibited the degradation of α-synuclein, with the exception of RBBP9 and HRas | Human CBR3 inhibited 20S proteasomes from all tested species. | Human CBR3 inhibited 20S proteasomes from all tested species.
